Laboratory results as given in paper doi:10.1101/2020.05.20.106609 (bioRxiv, 2020).

Experiments:
[1] = target: SARS-CoV-2 spike N terminal domain (NTD) (SARS-CoV-2 Wuhan-Hu-1 (QHD43416), UniProt P0DTC2); experiment: ELISA
[2] = target: T1, SARS-CoV-2 spike receptor binding domain (RBD) (SARS-CoV-2 Wuhan-Hu-1 (QHD43416), UniProt P0DTC2); experiment: cell-based or functional assay
[3] = target: SARS-CoV-2 spike S1 subunit (SARS-CoV-2 Wuhan-Hu-1 (QHD43416), UniProt P0DTC2); experiment: ELISA
[4] = target: T1, SARS-CoV-2 spike receptor binding …; experiment: BLI

Binder | binding result [1] | NT50, plaque reduction neutralization test (PRNT), SARS-CoV-2 on Vero E6 cells [2] | Kd [3] | Kd [4]
MD45 (scFv, V domains shown) VH: EVQLVQSGGGLVQPGGSLRLSCAASGFTVSSNYMTWVRQAPGKGLEWVSVIYSGGSTFYADSVKGRFTISRHNSKNTLYLQMNSLRAEDTAVYYCARDLSVRGGMDVWGQGTMVTVSS VL: EIVLTQSPGTLSLSPGERATLSCRASQSVNSSYLAWYQQKPGQAPRLLIYGASNRATGIPDRFSGSGSGTDFTLTISRLEPEDFAVYYCQQYGVSPEIIFGQGTRLEIK | no binding | 2.1 µg/mL | 12.7 nM | –
MD67 (scFv, V domains shown) VH: EVQLVESGGGLVQPGGSLRLSCAASGFTVSSNYMTWVRQAPGKGLEWVSVIYSGGSTFYADSVKGRFTISRHNSKNTLYLQMNSLRAEDTAVYYCARDLSVRGGMDVWGQGTTVTVSS VL: not shown | no binding | 1.9 µg/mL | – | 0.4 to 5.8 nM
MD47 (scFv, V domains shown) V domain 1: QMQLVQSGGGLVQPGGSLRLSCAASGFTFSSYAMSWVRQAPGKGLEWVSAISSGGSTYYADSVKGRFTISRDNSKNTLYLQMNSLRAEDTAVYYCAKDLVTAPSYEAFDIWGQGTMITVSS V domain 2: NFMLTQPPSVSVAPGKTARITCGGNNIGSKSVHWYQQKPGQAPVLVIYYDSDRPSGIPERFSGSNSGNTATLTISRVEAGDEADYYCQVWDSSSHHHVVFGGGTKGTVL | no binding | 13 µg/mL | – | –
MD63 (scFv, V domains shown) VH: QVTLKESGGGVVQPGRSLRLSCAASGFTFSSYAMHWVRQAPGKGLEHVSAISSDGGITYFADSVKGRFTISRDNSRNTLFLQMSSLRVEDTAVYYCVKDQDSNSWYDAFDIWGRGTMVTVSS VL: not shown | no binding | – | 15.6 nM | –
MD17 (scFv, V domains shown) VH: EVQLLESGGGLVQPGGSLRLSCSASGFTFSTYVMNWVRQAPGKGLEHVSGISSDGGITYYADSVKGRFTISRDNSKNTLYLQMSSLRVEDTAVYYCVKDQDSSSWYDAFDIWGQGTMVTVSS VL: DIVMTQSPSSLSASVGDRVTITCRASQSISNYLNWYQQKLGKAPKLLTYAASRLQSGVPSRFSASGSGTEFTLTISSLQPEDFATYYCQQSYTTPLTFGGGTKLEIK | no binding | 43 µg/mL | – | –
MD29 (scFv, V domains shown) VH: QMQLVQSGGGLVQPGGSLRLSCSASGFTFSTYVMNWVRQAPGKGPEHVSGISSDGGITYYADSVKGRFTISRDNSKNTLYLQMSSLRVEDTAVYYCVKDQDSSSWYDAFDIWGQGTMVTVSS VL: NIRLTQSPSSLSASVGDRVTITCRATQSISSYLNWYQQKPGKAPNLLIYAASSLQSGVPSRFSGSGSGTDFTLTISSLQPEDFATYYCHQTYTSPYTFGQGTKLEIK | no binding | 13 µg/mL | – | 0.4 to 5.8 nM
MD62 (scFv, V domains shown) VH: EVQLVQSGGGLIQPGGSLRLSCAASGVTVSSNYMTWVRQAPGKGLEWVSLIYSGGSTYYADSVKGRFTISRDNSKNTLYLQMNSLRAEDTAVYYCARDLQYYGMDVWGQGTMVTVSS VL: AIRMTQSPSSVSASVGDRVTITCRASQDIGSWLGWYQQKPGKAPKLLIYAASSLAGGVPSRFSGSGSGTDFTLTISSLQPEDFATYYCQQANSFPLTFGGGTKLEIK | no binding | 1.6 µg/mL | – | –
